Experimental data reported in patent US20210188940A1 (BIOAGE LABS, published 2021).
Numbering of substitutions follows the chain as printed. Each block holds one binder with its values, some of them ahead of it.

Experiments:
Assay in all cases: ELISA, ligand coated on plate, RAGE-Fc titrated, anti-IgG Fc-HRP detection; apparent Kd
[1] = target: T1, CML-HSA (carboxymethylated human serum albumin) (human, UniProt P02768 25-609, carboxymethylated (CML); modified sites not stated)
T1 construct: An advanced glycation end-product form of HSA, coated on the ELISA plate
Protocol: (§1) Functional ELISA assays were performed to assess the ligand binding characteristics of RAGE-Fc fusion proteins. Apparent binding affinities of RAGE-Fc fusion proteins to the RAGE ligands CML-HSA, HMGB1, S100A9 and S100A12 were measured for the following fusion proteins: Construct #1 (SEQ ID NO: 5), Construct #9 (SEQ ID NO: 53), Construct #10 (SEQ ID NO: 12), Construct #12 (SEQ ID NO: 15), and Construct #16 (SEQ ID NO: 16). Previous experiments were carried out to determine fundamental functionality of an ELISA, optimal coating concentrations and volumes, a dynamic range for the RAGE-Fc constructs, as well as optimized antibody dilutions and TMB development times.
(§2) RAGE ligands CML-HSA, HMGB1, S100A9 and S100A12 were separately coated onto a coated plate (MaxiSorp™) at a concentration of 50 nanomolar (nM), 100 microliters (μL) per well. RAGE ligand CML-HSA was separately coated onto a coated plate (MaxiSorp™) at a concentration of 100 nanograms (ng), 100 μL per well. The plates were then incubated overnight at 4° C. to allow the protein to bind to the plate coating. Following the coating step, the plates were washed once with 150 μL of wash solution (2.67 mM potassium chloride, […], 136.9 mM sodium chloride, 8.10 mM sodium phosphate dibasic, 0.05% Tween-20). […] After the blocking step, two washes were performed with the wash solution. The RAGE-Fc fusion protein was then incubated on the wells in log10 dilution with each separate ligand for 120 minutes at 37° C. while shaking. After the RAGE-Fc binding step, three washes were performed with the wash solution. Binding of the RAGE-Fc fusion to […], HMGB1, S100A9, and S100A12 was detected with a horseradish peroxidase (HRP) conjugated antibody with antigen specificity to IgG Fc (Abcam, Cat. No. ab99759). 100 μL of antibody diluted 1:5000 in DBPS was added to the assay wells, followed by 60 minutes of incubation at 37° C. while shaking. The wells were then washed four times with the wash solution. 100 μL of TMB (ThermoFisher Scientific, Cat. No. 34029) was then added to each well.

HMGB1 (amphoterin) = target: T2, HMGB1 (amphoterin) (UniProt P09429 1-215, limits assumed)
T2 sequence (looked up): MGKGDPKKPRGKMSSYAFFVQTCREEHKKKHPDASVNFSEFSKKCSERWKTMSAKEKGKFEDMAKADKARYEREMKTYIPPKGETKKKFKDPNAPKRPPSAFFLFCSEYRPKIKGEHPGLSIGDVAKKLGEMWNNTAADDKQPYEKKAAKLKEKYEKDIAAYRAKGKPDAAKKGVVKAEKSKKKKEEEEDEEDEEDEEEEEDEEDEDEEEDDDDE
Protocol: as §1, §2

S100A9 = target: T3, S100A9 (UniProt P06702 1-114, limits assumed)
T3 sequence (looked up): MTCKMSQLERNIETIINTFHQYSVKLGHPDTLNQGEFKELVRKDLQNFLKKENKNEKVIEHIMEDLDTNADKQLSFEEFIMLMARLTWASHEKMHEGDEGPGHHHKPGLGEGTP
Protocol: as §1, §2

S100A12 = target: T4, S100A12 (UniProt P80511 1-92, limits assumed)
T4 sequence (looked up): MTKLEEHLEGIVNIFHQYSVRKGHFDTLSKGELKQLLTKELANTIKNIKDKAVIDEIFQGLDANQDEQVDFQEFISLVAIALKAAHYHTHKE
Protocol: as §1, §2

T1 sequence (P02768 25-609 limits assumed): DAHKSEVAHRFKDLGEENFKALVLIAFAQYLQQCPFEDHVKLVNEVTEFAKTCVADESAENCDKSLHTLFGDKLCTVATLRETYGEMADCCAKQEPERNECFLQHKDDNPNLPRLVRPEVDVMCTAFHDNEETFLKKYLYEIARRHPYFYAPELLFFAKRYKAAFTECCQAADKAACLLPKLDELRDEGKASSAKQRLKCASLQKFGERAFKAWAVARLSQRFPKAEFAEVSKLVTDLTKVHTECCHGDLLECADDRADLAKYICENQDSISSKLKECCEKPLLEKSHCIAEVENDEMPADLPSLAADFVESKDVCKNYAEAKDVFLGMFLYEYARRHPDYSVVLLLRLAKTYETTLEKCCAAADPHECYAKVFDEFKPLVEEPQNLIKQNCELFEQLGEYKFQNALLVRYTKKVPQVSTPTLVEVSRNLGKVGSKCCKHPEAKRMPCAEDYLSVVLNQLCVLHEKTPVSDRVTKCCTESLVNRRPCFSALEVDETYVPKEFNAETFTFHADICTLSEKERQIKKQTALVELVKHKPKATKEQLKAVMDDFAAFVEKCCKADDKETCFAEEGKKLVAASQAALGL

Kd [1]: 39 nM | Kd (HMGB1 (amphoterin)): 7 nM | Kd (S100A9): 25 nM | Kd (S100A12): 44 nM
B1: Construct #12: RAGE V-C1-C2-V1stem(M/A)-IgG2 lower hinge-(IgG4CH2-CH3) (Fc fusion)
chain: AQNITARIGEPLVLKCKGAPKKPPQRLEWKLNTGRTEAWKVLSPQGGGPWDSVARVLPNGSLFLPAVGIQDEGIFRCQAMNRNGKETKSNYRVRVYQIPGKPEIVDSASELTAGVPNKVGTCVSEGSYPAGTLSWHLDGKPLVPNEKGVSVKEQTRRHPETGLFTLQSELMVTPARGGDPRPTFSCSFSPGLPRHRALRTAPIQPRVWEPVPLEEVQLVVEPEGGAVAPGGTVTLTCEVPAQPSPQIHWMKDGVPLPLPPSPVLILPEIGPQDQGTYSCVATHSSHGPQESRAVSISIIEPGEEGPTAGEGFDKVREAEDSPQHAVECPPCAPPVAGGPSVFLFPPKPKDTLMISRTPEVTCVVVDVSQEDPEVQFNWYVDGVEVHNAKTKPREEQFNSTYRVVSVLTVLHQDWLNGKEYKCKVSNKGLPSSIEKTISKAKGQPREPQVYTLPPSQEEMTKNQVSLTCLVKGFYPSDIAVEWESNGQPENNYKTTPPVLDSDGSFFLYSRLTVDKSRWQEGNVFSCSVMHEALHNHYTQKSLSLSLGK
notes: also called esRAGE-Fc fusion

Kd [1]: 35 nM | Kd (HMGB1 (amphoterin)): 7 nM | Kd (S100A9): 27 nM | Kd (S100A12): 36 nM
B2: Construct #16: RAGE V-C1-C2-V1stem(M/A)-IgG2 lower hinge-(IgG4CH2-CH3)-YTE (Fc fusion)
chain: B1 chain with M353Y, S355T, T357E
notes: also called #12 + YTE; esRAGE-Fc fusion
